Results from PMC6648891.

Target: T1, FOXC2 DBD (Homo sapiens, UniProt Q99958 60-198)
T1 sequence: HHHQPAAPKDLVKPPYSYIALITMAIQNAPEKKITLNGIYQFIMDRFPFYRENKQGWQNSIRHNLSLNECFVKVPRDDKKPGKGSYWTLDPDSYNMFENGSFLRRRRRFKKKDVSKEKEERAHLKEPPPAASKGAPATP
Test: EMSA

B1: 16 bp EMSA DNA (dsDNA)
DNA 1: CAAGGTAAACAAACCA
DNA 2: TGGTTTGTTTACCTTG
Kd: 26.4 µM
